In patent US20240117325:

Biological target: β-lactoglobulin

Row | Protein | allergenic protein degradation rate | allergenic protein residual rate | reductase activity (AMS labelling, SDS-PAGE)
1 | fusion protein of ferredoxin-thioredoxin reductase (FTRB/FTRA2) and thioredoxin Y2 fused via linker peptide (GGGGS)3 of 15 amino acid residues (protein) chain 1: AKTEPSEKSVEIMRKFSEQYARRSGTYFCVDKGVTSVVIKGLAEHKDSYGAPLCPCRHYDDKAAEVGQGFWNCPCVPMRERKECHCMLFLTPDNDFAGKDQTITSDEIKETTANMGGGGSGGGGSGGGGSAAKKQTFNSFDDLLQNSDKPVLVDFYATWCGPCQLMVPILNEVSETLKDIIAVVKIDTEKYPSLANKYQIEALPTFILFKDGKLWDRFEGALPANQLVERIENSLQVKQ chain 2: DIAVKSAASVDADADLSSSTSLETEEDEKAKEKIGARVRVTVPLKVYHVVRVPEVELMGMEGFIKDYVVLWKGKKISANLPFKVQFVKEIEGRGPVKFFTHLKEDEFELIDPHHHHHH | the degradation rate was 56% | the allergenic protein residual rate was 44% | The reduced form of the allergenic protein was detected in all of (b) to (d) in FIG. 11, confirming reductase activity
2 | fusion protein of ferredoxin-thioredoxin reductase (FTRB/FTRA2) and thioredoxin Y2 fused via linker peptide (GGGGS)2 of 10 amino acid residues (protein) chain 1: AKTEPSEKSVEIMRKFSEQYARRSGTYFCVDKGVTSVVIKGLAEHKDSYGAPLCPCRHYDDKAAEVGQGFWNCPCVPMRERKECHCMLFLTPDNDFAGKDQTITSDEIKETTANMGGGGSGGGGSAAKKQTFNSFDDLLQNSDKPVLVDFYATWCGPCQLMVPILNEVSETLKDIIAVVKIDTEKYPSLANKYQIEALPTFILFKDGKLWDRFEGALPANQLVERIENSLQVKQ chain 2: DIAVKSAASVDADADLSSSTSLETEEDEKAKEKIGARVRVTVPLKVYHVVRVPEVELMGMEGFIKDYVVLWKGKKISANLPFKVQFVKEIEGRGPVKFFTHLKEDEFELIDPHHHHHH | the degradation rate was 58% | the allergenic protein residual rate was 42% | The reduced form of the allergenic protein was detected in all of (b) to (d) in FIG. 11, confirming reductase activity
3 | fusion protein of ferredoxin-thioredoxin reductase (FTRB/FTRA2) and thioredoxin Y2 fused via linker peptide (GGGGS)1 of 5 amino acid residues (protein) chain 1: AKTEPSEKSVEIMRKFSEQYARRSGTYFCVDKGVTSVVIKGLAEHKDSYGAPLCPCRHYDDKAAEVGQGFWNCPCVPMRERKECHCMLFLTPDNDFAGKDQTITSDEIKETTANMGGGGSAAKKQTFNSFDDLLQNSDKPVLVDFYATWCGPCQLMVPILNEVSETLKDIIAVVKIDTEKYPSLANKYQIEALPTFILFKDGKLWDRFEGALPANQLVERIENSLQVKQ chain 2: DIAVKSAASVDADADLSSSTSLETEEDEKAKEKIGARVRVTVPLKVYHVVRVPEVELMGMEGFIKDYVVLWKGKKISANLPFKVQFVKEIEGRGPVKFFTHLKEDEFELIDPHHHHHH | the degradation rate was 29% | the allergenic protein residual rate was 71% | The reduced form of the allergenic protein was detected in all of (b) to (d) in FIG. 11, confirming reductase activity
